Target: T1, human CD19 (human, UniProt P15391 20-556)
T1 sequence (looked up): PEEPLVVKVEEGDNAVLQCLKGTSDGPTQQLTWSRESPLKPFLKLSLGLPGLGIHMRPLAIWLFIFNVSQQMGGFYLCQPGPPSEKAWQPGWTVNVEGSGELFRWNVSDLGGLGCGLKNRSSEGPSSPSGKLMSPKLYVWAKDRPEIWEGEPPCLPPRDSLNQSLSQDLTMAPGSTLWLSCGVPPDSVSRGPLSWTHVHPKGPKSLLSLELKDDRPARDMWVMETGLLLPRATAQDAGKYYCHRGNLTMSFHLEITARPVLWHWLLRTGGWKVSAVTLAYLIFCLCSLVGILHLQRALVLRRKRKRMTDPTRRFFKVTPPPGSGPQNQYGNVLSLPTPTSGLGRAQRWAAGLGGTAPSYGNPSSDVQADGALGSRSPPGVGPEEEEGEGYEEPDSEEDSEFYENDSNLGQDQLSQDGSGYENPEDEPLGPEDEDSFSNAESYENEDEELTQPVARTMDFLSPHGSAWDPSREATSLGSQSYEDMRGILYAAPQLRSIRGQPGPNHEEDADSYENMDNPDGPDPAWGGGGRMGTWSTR
Assay: cell-based or functional assay

expansion after one stimulation with 3T3-CD19 cells (mean): 20 fold
expansion after three weekly stimulations with 3T3-CD19 cells: ~1000 fold
B1: 1928z chimeric antigen receptor (CD19-specific second-generation CAR: SJ25C1-derived scFv, CD28, CD3 zeta) (receptor)
chain: EVKLQQSGAELVRPGSSVKISCKASGYAFSSYWMNWVKQRPGQGLEWIGQIYPGDGDTNYNGKFKGQATLTADKSSSTAYMQLSGLTSEDSAVYFCARKTISSVVDFYFDYWGQGTTVTVSSGGGGSGGGGSGGGGSDIELTQSPKFMSTSVGDRVSVTCKASQNVGTNVAWYQQKPGQSPKPLIYSATYRNSGVPDRFTGSGSGTDFTLTITNVQSKDLADYFCQQYNRYPYTSGGGTKLEIKRAAAIEVMYPPPYLDNEKSNGTIIHVKGKHLCPSPLFPGPSKPFWVLVVVGGVLACYSLLVTVAFIIFWVRSKRSRLLHSDYMNMTPRRPGPTRKHYQPYAPPRDFAAYRSRVKFSRSAEPPAYQQGQNQLYNELNLGRREEYDVLDKRRGRDPEMGGKPRRKNPQEGLYNELQKDKMAEAYSEIGMKGERRRGKGHDGLYQGLSTATKDTYDALHMQALPPR

Reference: patent publication US20160009813A1 (Memorial Sloan Kettering, published 2016)
